Assay results reported in patent US20200138970A1 (Bayer, published 2020).
Substitutions are numbered along the chain they refer to.

T1: human B7H3 on cancer cell lines (human, UniProt Q5ZPR3 29-534)
T1 sequence (looked up): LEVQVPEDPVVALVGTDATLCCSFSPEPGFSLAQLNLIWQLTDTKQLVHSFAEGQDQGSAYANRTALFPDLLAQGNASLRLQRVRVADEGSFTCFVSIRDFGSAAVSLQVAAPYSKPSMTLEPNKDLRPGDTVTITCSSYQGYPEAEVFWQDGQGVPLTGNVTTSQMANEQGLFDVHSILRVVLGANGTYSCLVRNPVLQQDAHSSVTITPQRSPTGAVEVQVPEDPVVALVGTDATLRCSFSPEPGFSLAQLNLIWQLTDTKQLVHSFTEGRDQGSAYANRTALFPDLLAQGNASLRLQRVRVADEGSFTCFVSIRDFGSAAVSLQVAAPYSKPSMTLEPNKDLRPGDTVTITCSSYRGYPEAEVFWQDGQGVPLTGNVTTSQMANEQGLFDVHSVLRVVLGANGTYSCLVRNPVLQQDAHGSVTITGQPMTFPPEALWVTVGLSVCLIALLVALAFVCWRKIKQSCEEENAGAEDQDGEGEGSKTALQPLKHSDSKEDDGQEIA

T2: TPP-3760, B7H3 long, human (R&D Systems 2318-B3/CF) (human, UniProt Q5ZPR3 27-461)
T2 construct: Bought protein; also called B7H3 (RnDSystems, 2318-B3-050/CF); human B7H3
T2 sequence: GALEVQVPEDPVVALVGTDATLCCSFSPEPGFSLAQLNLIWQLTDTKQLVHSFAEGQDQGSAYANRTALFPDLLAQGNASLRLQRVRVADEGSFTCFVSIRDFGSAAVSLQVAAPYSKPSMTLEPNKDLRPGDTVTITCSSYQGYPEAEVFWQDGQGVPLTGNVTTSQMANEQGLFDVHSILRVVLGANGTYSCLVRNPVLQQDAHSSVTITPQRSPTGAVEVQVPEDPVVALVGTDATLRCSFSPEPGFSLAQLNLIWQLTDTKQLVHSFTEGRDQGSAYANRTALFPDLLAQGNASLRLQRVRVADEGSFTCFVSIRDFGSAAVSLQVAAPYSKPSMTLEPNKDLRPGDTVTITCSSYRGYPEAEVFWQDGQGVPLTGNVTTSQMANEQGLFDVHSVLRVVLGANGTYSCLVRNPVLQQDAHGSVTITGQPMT

T3: human B7H2 (RnDSystems, 8206-B7) (human, UniProt O75144 19-258, limits assumed)
T3 construct: Bought protein; His tag implied by anti-His detection
T3 sequence (looked up): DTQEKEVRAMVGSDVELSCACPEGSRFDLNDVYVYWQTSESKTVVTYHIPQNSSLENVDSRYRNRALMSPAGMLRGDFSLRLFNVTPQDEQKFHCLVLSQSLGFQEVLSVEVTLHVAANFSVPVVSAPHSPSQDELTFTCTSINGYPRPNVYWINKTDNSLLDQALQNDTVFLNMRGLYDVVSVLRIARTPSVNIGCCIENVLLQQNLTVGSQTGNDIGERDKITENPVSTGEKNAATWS

T4: human B7H4 (RnDSystems, 6576-B7) (human, UniProt Q7Z7D3 29-258, limits assumed)
T4 construct: Bought protein; His tag implied by anti-His detection
T4 sequence (looked up): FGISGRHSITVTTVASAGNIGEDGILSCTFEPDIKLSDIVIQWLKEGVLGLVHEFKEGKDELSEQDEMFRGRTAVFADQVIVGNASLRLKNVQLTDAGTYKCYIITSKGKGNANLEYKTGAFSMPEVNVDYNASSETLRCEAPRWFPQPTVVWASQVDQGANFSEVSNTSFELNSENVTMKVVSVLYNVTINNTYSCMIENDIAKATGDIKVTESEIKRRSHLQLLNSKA

B1: ADC Example 208-6501 (antibody, human IgG1, lambda, V domains shown)
VH: EVQLLESGGGLVQPGGSLRLSCAASGFTFSSYGMHWVRQAPGKGLEWVSAISGSGGSTYYADSVKGRFTISRDNSKNTLYLQMNSLRAEDTAVYYCARGSNYLGMDVWGQGTLVTVSS
VL: QSVLTQPPSASGTPGQRVTISCSGSSSNIGRNIVNWYQQLPGTAPKLLIYRSNQRPSGVPDRFSGSKSGTSASLAISGLRSEDEADYYCQTWGTGWVFGGGTKLTVLG
modifications: drug-linker from Intermediate F104 on Cys, sites not stated
B2: ADC Example 173-6515 (antibody, human IgG1, lambda, V domains shown)
VH: B1 VH with A40V, S57T, S100G, N101Y, Y102H, L103F, G104L, M105F, V107Y
VL: QSVLTQPPSASGTPGQRVTISCSGSSSNIGSNTVNWYQQLPGTAPKLLIYRNDQRLLGVPDRFSGSKSGTSASLAISGLRSEDEADYYCQSYDSSLSGWVFGGGTKLTVLG
modifications: drug-linker from Intermediate F173 on Cys, sites not stated
B3: ADC Example 208-6515 (antibody, human IgG1, lambda, V domains shown)
VH: B1 VH with A40V, S57T, S100G, N101Y, Y102H, L103F, G104L, M105F, V107Y
VL: B2 VL
modifications: drug-linker from Intermediate F104 on Cys, sites not stated
B4: ADC Example 208-6499 (antibody, human IgG1, lambda, V domains shown)
VH: EVQLLESGGGLVQPGGSLRLSCAASGFTFRDFYMNWIRQAPGKGLEWVSSISASGKYTYYADSVKGRFTISRDNSKNTLYLQMNSLRAEDTAVYYCAREWGYCTNDVCRNWFDPWGQGTLVTVSS
VL: QSVLTQPPSASGTPGQRVTISCSGGYSNVGGNNVNWYQQLPGTAPKLLIYGNSNRPSGVPDRFSGSKSGTSASLAISGLRSEDEADYYCQSYDSSLSGSVFGGGTKLTVLG
modifications: drug-linker from Intermediate F104 on Cys, sites not stated
B5: ADC Example 257-6499 (antibody, human IgG1, lambda, V domains shown)
VH: B4 VH
VL: B4 VL
modifications: drug-linker from Intermediate F257 on Cys, sites not stated
B6: ADC Example 194-6502 (antibody, human IgG1, lambda, V domains shown)
VH: B1 VH with S31T, A97T, S100Y, N101Y, L103Y
VL: B4 VL with Y26S, V29I, G31S, N33P, N54K, S99W
modifications: drug-linker from Intermediate F194 on Lys, sites not stated
B7: ADC Example 208-6502 (antibody, human IgG1, lambda, V domains shown)
VH: B1 VH with S31T, A97T, S100Y, N101Y, L103Y
VL: B4 VL with Y26S, V29I, G31S, N33P, N54K, S99W
modifications: drug-linker from Intermediate F104 on Cys, sites not stated
B8: ADC Example 297-6501 (antibody, human IgG1, lambda, V domains shown)
VH: B1 VH
VL: B1 VL
modifications: drug-linker from Intermediate F297 on Cys, sites not stated
B9: ADC Example 284-6501 (antibody, human IgG1, lambda, V domains shown)
VH: B1 VH
VL: B1 VL
modifications: drug-linker from Intermediate F284 on Cys, sites not stated
B10: ADC Example 281-6501 (antibody, human IgG1, lambda, V domains shown)
VH: B1 VH
VL: B1 VL
modifications: drug-linker from Intermediate F281 on Cys, sites not stated
B11: ADC Example 274-6499 (antibody, human IgG1, lambda, V domains shown)
VH: B4 VH
VL: B4 VL
modifications: drug-linker from Intermediate F274 on Cys, sites not stated
B12: TPP-6515 (antibody, human IgG1, lambda, V domains shown)
VH: B1 VH with A40V, S57T, S100G, N101Y, Y102H, L103F, G104L, M105F, V107Y
VL: B2 VL
B13: TPP-6499 (antibody, human IgG1, lambda, V domains shown)
VH: B4 VH
VL: B4 VL
B14: TPP-6502 (antibody, human IgG1, lambda, V domains shown)
VH: B1 VH with S31T, A97T, S100Y, N101Y, L103Y
VL: B4 VL with Y26S, V29I, G31S, N33P, N54K, S99W

target: T1, human B7H3 on cancer cell lines; experiment: cell-based or functional assay

Binder	A498 CTG (IC 50 M)	MCF-7 CTG (IC50 M)	Caki-2 CTG (IC50 M)
B1	< 0.03 nM	0.161 nM	–
B2	> 307 nM	–	2.57 nM
B3	0.688 nM	0.338 nM	–
B4	–	0.135 nM	–
B5	0.247 nM	–	< 0.03 nM
B6	2.93 nM	1 nM	–
B7	0.0667 nM	–	–

target: T1, human B7H3 on cancer cell lines; experiment: cell-based or functional assay; remark: another data set of the same source

Binder	U251 CTG (IC50 M)
B1	0.295 nM
B8	0.704 nM
B9	62.9 nM
B10	29.9 nM
B3	0.41 nM
B11	1.2 nM
B5	0.0736 nM
B7	0.933 nM

target: T2, TPP-3760, B7H3 long, human (R&D Systems …); experiment: ELISA, IgG captured on anti-human IgG Fc, antigen 37 ng/ml, anti-His HRP detection
Procedure: (§1) Binding of the antibodies to human B7H3 and to human B7H2 and B7H4 was characterized using ELISAs. […] After washing once with PSB, 0.05% Tween, the plate was blocked with 100% Smart Block (Candor) for one hour at 37° C. The antibody to be tested was then attached to the plate (2 μg/ml IgG in PBS, 0.05% Tween, 10% Smart Block; 1 hour, room temperature). […] After washing three times, the plate was incubated with Amplex Red for 30 minutes and then read.

Binder	Quotient signal (B7)/signal (buffer)
B12	116
B13	109
B14	126

target: T3, human B7H2 (RnDSystems, 8206-B7); experiment: as above
Procedure: as §1

Binder	Quotient signal (B7)/signal (buffer)
B12	< 1.5
B13	< 1.5
B14	< 1.5

target: T4, human B7H4 (RnDSystems, 6576-B7); experiment: as above
Procedure: as §1

Binder	Quotient signal (B7)/signal (buffer)
B12	< 1.5
B13	< 1.5
B14	< 1.5

target: T1, human B7H3 on cancer cell lines; experiment: flow cytometry on A498 cells, dose response from 10 ug/mL (1:5 dilution), FITC secondary antibody
Procedure: A dose response curve (1:5 dilution) was generated. Following incubation, 200 μL of ice-cold FACS buffer were pipetted in and the cell suspension was centrifuged at 4° C., 400 g for 4 min. The cell pellet was washed with 300 μL of ice-cold FACS buffer prior to resuspending the pellet obtained in 100 μL of FACS buffer and again incubating for 30 min on ice with secondary antibody (monoclonal anti-kappa light chains FITC antibody, Sigma, No. SAB4700605) in a 1:10 dilution. Subsequently, the cells were washed with ice-cold FACS buffer and adjusted to a cell concentration of 0.5×10⁶ cells/mL before carrying out the flow cytometry using a Guava flow cytometer (Millipore). Propidium iodide (final concentration 1 μg/mL) was used for the live staining. With the aid of the background-corrected geometric mean fluorescence values, the IC50 value of the antibody to be investigated was determined.

Binder	EC50
B12	0.661 nM
B13	0.847 nM
B14	0.143 nM
